Assay results as given in patent publication US20250206841A1 (ADEPT THERAPEUTICS, published 2025).
Positions count from the first letter of the chain named.

T1: human Trop-2 expressed on cell surface (human, UniProt P09758 27-323)
T1 sequence (looked up): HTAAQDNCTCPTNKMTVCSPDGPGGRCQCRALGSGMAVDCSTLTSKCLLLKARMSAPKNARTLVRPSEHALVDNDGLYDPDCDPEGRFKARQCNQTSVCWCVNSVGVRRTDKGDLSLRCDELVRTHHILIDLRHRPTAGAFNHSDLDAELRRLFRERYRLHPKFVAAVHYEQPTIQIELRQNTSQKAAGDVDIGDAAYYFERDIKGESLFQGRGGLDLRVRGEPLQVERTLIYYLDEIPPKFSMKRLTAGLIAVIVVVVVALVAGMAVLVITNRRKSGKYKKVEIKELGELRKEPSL

T2: human Trop-2-His protein (human, UniProt P09758 27-274)
T2 construct: extracellular domain; Assay paragraphs say only 'Trop-2-His'; also called hTrop-2; Kactus Cat #TRP-HM121; not shown: His tag
T2 sequence (looked up): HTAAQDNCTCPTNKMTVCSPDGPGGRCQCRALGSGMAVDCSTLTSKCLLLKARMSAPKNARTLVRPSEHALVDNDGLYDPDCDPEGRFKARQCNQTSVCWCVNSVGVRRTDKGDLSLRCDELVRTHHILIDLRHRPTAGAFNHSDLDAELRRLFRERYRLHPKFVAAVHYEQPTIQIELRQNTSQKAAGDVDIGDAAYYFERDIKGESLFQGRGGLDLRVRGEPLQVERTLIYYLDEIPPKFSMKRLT

T3: cynomolgus Trop-2-His protein (cynomolgus, UniProt P09758 27-274 (human entry))
T3 construct: also called cynmolgus Trop-His; Kactus Cat #TRP-CM121; not shown: His tag
T3 chain: T2 sequence (looked up) with M36V, S67N, G139S, I204V

B1: 63H3 (antibody, V domains shown)
VH: QEQLKESGGGLVQPGGSLKLSCKASGFDFNSYGVSWVRQAPGKGLEWIAYIYPAFHNAYYANWVNGRFTISSDNAQNTVDLQLNSLTAADTATYFCARDAGGTDYNYNLWGPGTLVTVSS
VL: DVVMTQTPASVEVAVGGTVTLKCQASEDIESYSAWYQQKPGQPPNLLIYEASKLASGVSSRFSGSGYGTEFTLTISGVECADAATYYCQQALTIGNVDNPFGGGSEVVVR
notes: Rabbit-derived clone; LEM construct: VH + rabbit IgG CH1 + human IgG1 CH2-CH3
B2: 65D5 (antibody, V domains shown)
VH: B1 VH with S31A, A58T, N62T, D73H, V79L, D80Y, S85T, G102T, Y107F
VL: DIVMTQTPASVSEPVGGTVTIKCQASQSISSYLAWYQQKPGQPPKLLIYEATKLTSGVSSRFSGSGYGTEFTLTISGVECADAATYYCQQALTVGDVDNPFGGGSEVVVK
notes: as for B1
B3: 66A1 (antibody, V domains shown)
VH: B1 VH with S31N, A58T, N62S, D73H, V79L, D80Y, N106A
VL: DVVMTQTPASVEAAVGGTVSINCQASEDIESYLAWYQQKPGQPPKLLIYKASTLASGVSSRFKGSGSGKQFTLTISGVECADAATYYCQQVLTIGNVDNPFGGGSEVVVK
notes: as for B1
B4: 5D4 (antibody, V domains shown)
VH: QQLEESGGGLVKPEGSLTLTCKGSGFDFSGTYWMWWVRQAPGKGLEWIACIYVGSGSSTYYASWAKGRFTISSTSSTAVTLQATSLTAADTATYFCARGATNNVFMNYFNLWGPGTLVTVSS
VL: FEMTQTPSSVSEPVGGTVTIKCQASEDISSNLGWYQQKPGQPPKLLIYGASTLASGVPSRFKGSGSGTEFTLTISDLECADAATYYCQTSYYIDDGVNGFGGGTEVVVK
notes: as for B1
B5: 5D4-1 (antibody, V domains shown)
VH: B4 VH with C50P
VL: B4 VL with C79P
B6: 5D4-2 (antibody, V domains shown)
VH: B4 VH with C50S
VL: B4 VL with C79A

Target: T1, human Trop-2 expressed on cell surface
Test: cell-based or functional assay

EC50 of ADCC (NFAT-CD16 reporter), MCF-7 [nM] | EC50 of ADCC (NFAT-CD16 reporter), MDA-MB-231 [nM] | Binder
0.17 | 0.03 | B1
0.32 | 0.05 | B2
0.22 | 0.06 | B3
0.57 | 0.07 | B4
0.61 | 0.11 | B5
0.52 | 0.08 | B6

Target: T1, human Trop-2 expressed on cell surface
Test: cell-based or functional assay
Remark: another data set of the same source

Internalization %, MDA-MB-231, 0.25 µg/ml, 2 h [%] | Internalization %, MDA-MB-231, 0.25 µg/ml, 4 h [%] | Internalization %, MDA-MB-231, 0.5 µg/ml, 2 h [%] | Internalization %, MDA-MB-231, 0.5 µg/ml, 4 h [%] | Internalization %, MDA-MB-231, 1 µg/ml, 2 h [%] | Internalization %, MDA-MB-231, 1 µg/ml, 4 h [%] | Internalization %, MDA-MB-231, 2 µg/ml, 2 h [%] | Internalization %, MDA-MB-231, 2 µg/ml, 4 h [%] | Binder
40 | 48 | 39 | 45 | 38 | 49 | 37 | 39 | B1
34 | 51 | 43 | 51 | 37 | 48 | 31 | 41 | B2
45 | 51 | 46 | 50 | 39 | 49 | 36 | 43 | B3
56 | 65 | 49 | 66 | 65 | 51 | 60 | 66 | B4
58 | 66 | 56 | 61 | 59 | 64 | 57 | 63 | B5
55 | 61 | 48 | 57 | 52 | 58 | 57 | 62 | B6

Target: T1, human Trop-2 expressed on cell surface
Test: cell-based or functional assay
Remark: another data set of the same source

Internalization %, MCF-7, 0.25 µg/ml, 1 h [%] | Internalization %, MCF-7, 0.25 µg/ml, 2 h [%] | Internalization %, MCF-7, 0.25 µg/ml, 4 h [%] | Internalization %, MCF-7, 0.5 µg/ml, 1 h [%] | Internalization %, MCF-7, 0.5 µg/ml, 2 h [%] | Internalization %, MCF-7, 0.5 µg/ml, 4 h [%] | Binder
15 | 26 | 36 | 23 | 37 | 44 | B1
18 | 36 | 41 | 23 | 41 | 42 | B2
20 | 36 | 45 | 33 | 45 | 53 | B3
44 | 52 | 64 | 62 | 59 | 74 | B4
59 | 57 | 62 | 42 | 56 | 73 | B5
51 | 67 | 58 | 23 | 43 | 61 | B6

Target: T1, human Trop-2 expressed on cell surface
Test: flow cytometry, MCF-7 cells
Summary of the method: (§1)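 Cells at 10⁶/ml in DPBS/1% FBS were incubated on ice for 1 h with antibodies in 1:3 serial dilutions from 15 μg/mL. Detection used PE anti-human Fc (1:400, 30 min on ice) with 7-AAD viability staining, read by flow cytometry. EC₅₀ from binding curves; anti-HEL hIgG1 isotype control.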

EC50 [nM] | Binder
0.6 | B1
0.8 | B2
0.6 | B3
1.2 | B4
1 | B5
0.8 | B6

Target: T2, human Trop-2-His protein
Test: ELISA, coated Trop-2 protein
Summary of the method: (§2)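 Purified antibodies were checked for binding to human or cynomolgus Trop-2-His protein by ELISA. Maxisorp plates were coated overnight at 4° C with 0.5 μg/ml protein, blocked with PBST/3% BSA, and incubated with serially diluted antibodies. Binding was detected with HRP-conjugated anti-hIgG and TMB, read at 450 nm, and EC₅₀ values were calculated in Graphpad Prism.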

EC50 [nM] | Binder
0.029 | B1
0.019 | B2
0.013 | B3
0.016 | B4
0.018 | B5
0.015 | B6

Target: T3, cynomolgus Trop-2-His protein
Test: ELISA, coated Trop-2 protein
Summary of the method: as §2

EC50 [nM] | Binder
0.033 | B1
0.015 | B2
0.014 | B3
0.014 | B4
0.023 | B5
0.018 | B6

Target: T1, human Trop-2 expressed on cell surface
Test: flow cytometry, MDA-MB-231-GFP cells
Summary of the method: as §1

EC50 [nM] | Binder
0.02 | B1
0.01 | B2
0.01 | B3
0.01 | B4
0.01 | B5
0.04 | B6

Target: T2, human Trop-2-His protein
Test: BLI (Gator Plus), purified Ab on HFC probe
Experimental: The affinity of the binding of the exemplary anti-Trop-2 antibodies of the present disclosure were determined. Assay was performed using Gator Plus according to the protocol recommended by Gator Bio Inc.. Briefly, human Trop-2-His (Kactus) was 1:4 fold serially diluted starting at 1 μg/ml. After three times of regeneration and neutralization of HFC probe, 1 μg/ml of antibody to be tested in Q buffer was immobilized onto HFC probe. […] The association and dissociation of human Trop-2-His antigen from antibody was measured on BLI machine Gator Plus. Affinity was calculated using Gator Bio analysis software. Blank control was used for reference subtraction. Sacituzumab govitecan was used as positive control.

Kd [nM] | koff [s⁻¹] | kon [M⁻¹ s⁻¹] | Binder
0.03 | 2.5e-05 | 766000 | B1
1.1 | 0.000898 | 819000 | B2
0.25 | 0.000193 | 788000 | B3
0.03 | 1.3e-05 | 522000 | B4
0.1 | 5.1e-05 | 489000 | B5
0.12 | 6e-05 | 487000 | B6
